According to paper PMC5958137, “Calreticulin and integrin alpha dissociation induces anti-inflammatory programming in animal models of inflammatory bowel disease” (Nature Communications, 2018):
Where a name gives a salt, the structure may show the parent alone. Ends that are not written are not given here. * marks the point of attachment. Biotin = O=C1N[C@H]2[C@H](CS[C@H]2CCCCC(=O)*)N1

Key:
Calreticulin (CRT) [1] = molecular target: T1, Calreticulin (CRT) (Homo sapiens, UniProt P27797); experiment: 1D 1H NMR ligand line broadening with CRT; […]-HSQC of ITGA4 peptide shows displacement from CRT; format: binding; parameters: gene CALR; Human CRT, His-tag fusion protein (pET-19b), expressed in E. coli
T1 sequence (P27797 18-417): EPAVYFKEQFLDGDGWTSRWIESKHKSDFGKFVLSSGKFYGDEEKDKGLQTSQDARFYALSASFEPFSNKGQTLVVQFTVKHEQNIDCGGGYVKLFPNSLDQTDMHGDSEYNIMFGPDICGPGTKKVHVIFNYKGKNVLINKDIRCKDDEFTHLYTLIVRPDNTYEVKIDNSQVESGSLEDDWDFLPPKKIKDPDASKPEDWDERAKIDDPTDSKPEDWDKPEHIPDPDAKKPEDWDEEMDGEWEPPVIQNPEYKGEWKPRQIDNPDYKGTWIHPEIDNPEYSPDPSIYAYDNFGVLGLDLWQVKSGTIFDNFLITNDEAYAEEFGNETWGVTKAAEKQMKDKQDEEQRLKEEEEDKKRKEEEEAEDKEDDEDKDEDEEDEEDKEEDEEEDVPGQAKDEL

Calreticulin (CRT) [2] = molecular target: T1, Calreticulin (CRT); experiment: cell-free plate assay of biotinylated ITGA peptide (KAGFFKR) binding to purified CRT; supported by GST-CRT pull-down; parameters: gene CALR
[3] = molecular target: T2, CRT (>90% pure) used for surface plasmon resonance (human, UniProt P27797 18-417); experiment: SPR
T2 chain: T1 sequence (P27797 18-417)

[4] = molecular target: T2, CRT (>90% pure) used for surface …; experiment: SPR
[5] = molecular target: T3, Human CRT protein, His-tag fusion protein (pET-19b) (human, UniProt P27797 18-417); experiment: NMR titration; two-dimensional 15N-HSQC, 4 μM 15N-ITGA4 with 4 μM CRT, 20 mM PB pH 5.5, 10% D2O, 303 K, 700 MHz; conditions: both partners purified
T3 construct: calreticulin (CRT), human; Surmise: pET-19b adds an N-terminal His tag; also called calreticulin; source: E. coli BL21, purified (Ni-NTA agarose, Superdex 75), >90% pure
T3 sequence (looked up): T1 sequence (P27797 18-417)

With `CC1(C)CC(c2ccccc2N2CCN(CC3CC3)CC2)CC(C)(C)C1` [ER-339093-13, 1-(cyclopropylmethyl)-4-[2-(3,3,5,5-tetramethylcyclohexyl)phenyl] piperazine methanesulfonate] the “1D 1H NMR ligand line broadening with CRT; 15N-HSQC of ITGA4 peptide shows displ” value (Calreticulin (CRT) [1]) was “notable line broadening of the ER-339093-13 signal was observed upon the addition of CRT”.

`CCCN1CCN(c2ccccc2C2CC(C)(C)CC(C)(C)C2)CC1` [ER-464195-01, 1-propyl-4-[2-(3,3,5,5-tetramethylcyclohexyl)phenyl] piperazine hydrochloride] was tested, and the IC50 (Calreticulin (CRT) [2]) was 0.17 µM.

Biotin-KAGFFKRQYKSILQEENRRDSWSYINSKSNDD [N-terminally biotinylated intracellular domain of the ITGA4 peptide] showed a koff [3] of 0.00388 s⁻¹ and a Kd [4] of 0.25 µM.

B1: uniformly 15N-labeled intracellular domain of ITGA4 (domain or fragment)
chain: KAGFFKRQYKSILQEENRRDSWSYINSKSNDD
modifications: also: uniformly 15N-labeled
notes: intracellular domain of integrin α4 (ITGA4), cloned BamHI-EcoRI into pGEX-2T; Surmise: thrombin cleavage of a pGEX-2T fusion leaves a few residues of the vector at the N-terminus; also called 15N-ITGA4; ITGA4 peptide
B1: binds [5].
